This passage reports Kd results from PMC7902612, “A synergetic effect of BARD1 mutations on tumorigenesis” (Nature Communications, 2021).

This assay addresses T1, GST-BRCA1-N (N-terminal of BRCA1, 1-147 aa) (human, UniProt P38398 1-147).
T1 construct: BRCA1, human, N-terminal residues 1-147; Cloned into pGEX-4T-1, which as far as I know puts GST at the N-terminus; also called recombinant BRCA1-N
Nature of the assay: MST; RED-NHS-labelled GST-BARD1-N or GST-BARD1^P24S-N at constant concentration (10-50 nM), twofold serial dilutions of GST-BRCA1-N; 50 mM Tris-HCl pH 7.4, 150 mM NaCl, 10 mM MgCl2, 0.05% Tween 20; 15 min at room temperature; Monolith NT.115, 20% and 40% MST power. The following applies: both partners purified.

T1 sequence (P38398 1-147): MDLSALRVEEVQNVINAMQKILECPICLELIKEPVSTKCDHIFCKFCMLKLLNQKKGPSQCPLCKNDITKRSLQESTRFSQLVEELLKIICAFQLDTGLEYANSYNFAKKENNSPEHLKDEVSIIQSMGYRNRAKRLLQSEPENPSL

B1: GST-BARD1-N (N-terminal of BARD1, 1-142 aa) (domain or fragment, human, UniProt Q99728 1-142, looked up)
chain: MPDNRQPRNRQPRIRSGNEPRSAPAMEPDGRGAWAHSRAALDRLEKLLRCSRCTNILREPVCLGGCEHIFCSNCVSDCIGTGCPVCYTPAWIQDLKINRQLDSMIQLCSKLRNLLHDNELSDLKEDKPRKSLFNDAGNKKNS
modifications: fluorescent label from the RED-NHS protein labeling kit (NanoTemper)
notes: BRCA1-associated RING-domain protein 1 (BARD1), human, N-terminal residues 1-142; Cloned into pGEX-4T-1, which as far as I know puts GST at the N-terminus
Take B1: the Kd is 890 nM.

One may read the Kd as the equilibrium constant for the complex coming apart. Low readings indicate tighter binding, high ones weaker binding.
